Test results published in paper PMC3075957 (Nature structural & molecular biology, 2011).

Key:
[1] = target: K2Q23K2; assay: sedimentation assay with HPLC of the supernatant
[2] = target: K2Q23K2; assay: sedimentation assay with HPLC
[3] = target: K2Q23K2
[4] = target: K2Q23K2; assay: seeded elongation kinetics
[5] = target: the molecule itself; assay: sedimentation assay with HPLC of the supernatant
[6] = Dynamic light scattering of aggregation reactions; type: physicochemical; settings: 166 μM, PBS 37 °C, different incubation times
[7] = Aggregation time course by HPLC sedimentation assay; type: physicochemical; settings: comparable concentrations, PBS 37 °C
[8] = Electron microscopy of end-stage aggregates; type: physicochemical; settings: PBS 37 °C, uniform smooth-sided fibrils

## K2Q23K2 (peptide)
[1]
  n* (critical nucleus size of aggregation): 3.9
  nucleation equilibrium constant Kn* (monomers to tetrameric nucleus): 0.076 l^3/mol^3
  percent aggregation (215 μM, 27 hrs): 5%
[2]
  critical concentration (Cr) of monomer in equilibrium with fibrils: 3 µM
[3]
  loss of monomer within two hours (215 μM): < 1%
[4]
  kon: 12400 M⁻¹ s⁻¹

B1: K2Q37K2 (peptide)
peptide: KKQQQQQQQQQQQQQQQQQQQQQQQQQQQQQQQQQQQQQKK
[5]
  n* (critical nucleus size of aggregation): 0.7

B2: SFQ37P10K2 (peptide)
peptide: SFQQQQQQQQQQQQQQQQQQQQQQQQQQQQQQQQQQQQQPPPPPPPPPPKK
[5]
  n* (critical nucleus size of aggregation): 1

B3: K2Q24K2 (peptide)
peptide: KKQQQQQQQQQQQQQQQQQQQQQQQQKK
[5]
  n* (critical nucleus size of aggregation): 3.3

B4: AT7^NTQ30K2: peptide consisting of the AT7^NT sequence (29 amino acid N-terminus of ataxin-7) followed by a Q30K2 sequence (peptide)
peptide: MSERAADDVRGEPRRAAAAAGGAAAAAARQQQQQQQQQQQQQQQQQQQQQQQQQQQQQQKK
[6]
  Aggregate formation by DLS versus sedimentation assay: no aggregate formation that was not detected by the sedimentation assay
[7]
  Aggregation rate compared with K2Q30K2: aggregates somewhat slower than K2Q30K2
[8]
  Fibril diameter by electron microscopy: ~10 nm

B5: K2Q25K2 (peptide)
peptide: KKQQQQQQQQQQQQQQQQQQQQQQQQQKK
[5]
  n* (critical nucleus size of aggregation): 2
